Consider one molecule from patent US7790697B2, “Compositions and methods for inhibiting the synthesis or expression of MMP-1” (Trustees of Dartmouth College, priority 2004, dated 2010).

For one data set, the system named is MMP-13 mRNA. Nature of the data set: Specificity qRT-PCR, MMP-13 mRNA in stable MDA-231 cells. Type of data set: cell-based, human. The settings on record: stable MDA-231 cell lines, 24 hour serum-free; group average ± S.D.; P=0.3 vs empty vector. An excerpt:
RNA Isolation and Real-Time RT-PCR. […] Real-Time PCR Primer Sequences. […] ID NO:7; MMP-1 reverse [NT] ID NO:8; MMP-2 forward [NT] ID NO:9; MMP-2 reverse [NT] ID NO:10; MMP-9 forward [NT] ID NO:11; MMP-9 reverse [NT] ID NO:12; MMP-13 forward [NT], SEQ ID NO:13; MMP-13 reverse [NT] ID NO:14; MMP-14 forward [NT] ID NO:15; MMP-14 reverse [NT] ID NO:16; GAPDH forward [NT] ID NO:17; GAPDH reverse [NT] ID NO:18; eGFP forward [NT] ID NO:19; eGFP reverse [NT] ID NO:20. Real-Time PCR Standards.
(In general: Quantitative PCR measures a nucleic acid by following its amplification.)

The test system of another data set is MDA-231 cells. Nature of the data set: Tumorigenesis studies in nude mice, mammary fat pad injection of MDA-231 cells. Type of data set: in vivo. As for the experimental part: Tumorigenesis Studies in Mice. Pooled MDA-231 stable cell lines containing either the empty vector or the MMP-1 shRNA (1×10^6 cells/100 μL HBSS) were injected into the 4th inguinal fat pad of twenty-one female, 6-week-old nude mice (NU/NU; Charles River Laboratories, Wilmington, Mass.) using 28 gauge×½″ single-use insulin needles. Mice were examined weekly until tumors were grossly apparent, then they were examined several times per week. Each tumor was measured twice with Vernier calipers, and tumor volume was calculated using the formula: 4/3πr^3. When the two measurements differed, the smaller radius measurement was squared and multiplied by the largest radius measurement. This number was then substituted for the r^3 portion of the formula.
The in vivo efficacy of the shRNA-mediated reduction of MMP-1 in the MDA-231 cells was analyzed. Nude mice were injected in the fourth inguinal mammary fat pad with MDA-231 cells containing either the empty vector or the MMP-1 shRNA. At week 6, tumors began to appear in the inguinal pad of several mice and at week 11, the mice were sacrificed.

B1: MMP-1 shRNA: Vector-expressed small hairpin RNA, SEQ ID NO:1 (sense) and SEQ ID NO:2 (antisense), specific to bases 234-252 of MMP-1 mRNA (nucleic acid)
sense: GATCCCCACCAGATGCTGAAACCCTGTTCAAGAGACAGGGTTTCAGCATCTGGTTTTTTGGAAA
antisense: AGCTTTTCCAAAAAACCAGATGCTGAAACCCTGTCTCTTGAACAGGGTTTCAGCATCTGGTGGG
modifications: the letters are possibly those of the target site
With B1, the “MMP-13 mRNA level” value in the data set with MMP-13 mRNA was 0.5 ± 0.2 copies of the target gene/pg GAPDH. The “average tumor size at time of sacrifice” value with MDA-231 cells (week 11, mean±s.e., n=10, p=0.027 vs empty vector) is on record as 272±117 mm^3. The “frequency of tumor formation” value in the data set with MDA-231 cells (week 11, n=23, p=0.11 vs empty vector (57%), Fisher's exact test) turned out to be 36%.
